Drawing on patent US20050026838A1, this text covers IC50 for two molecules.

The test deals with [125I]-FGF-1 binding sites on membranes prepared from adult rat cortex. Nature of the test: displacement of [125I]-FGF-1 by unlabelled FGF, membranes prepared from adult rat cortex.

Molecule “FGF-2 (basic FGF) (from UniProt P09038 143-288) (ligand)” displayed an IC50 of 0.2 nM.

B1: Fibroblast Growth Factor 13 (recombinant human FGF-13, expressed in Escherichia coli) (ligand)
chain: MQGENHPSPNFNQYVRDQGAMTDQLSRRQIREYQLYSRTSGKHVQVTGRRISATAEDGNKFAKLIVETDTFGSRVRIKGAESEKYICMNKRGKLIGKPSGKSKDCVFTEIVLENNYTAFQNARHEGWFMAFTRQGRPRQASRSRQNQREAHFIKRLYQGQLPFPNHAEKQKQFEFVGSAPTRRTKRTRRPQPLT
With B1, the half-inhibitory concentration (IC50) worked out at 1 nM.
